This is an account of results in patent US20230183352A1 (published 2023).

The target of experiment [1] is T1, Claudin 18.2 (CLDN18.2), expressed on CHOS-CLDN 18.2 / HEK293-CLDN 18.2 / HCC827-CLDN 18.2 cells (human, UniProt P56856-2 1-261).
T1 construct: whole, on cells; The species is not repeated for the CHOS-CLDN 18.2 cells; also called claudin-18A2
In words: FACS, CHOS-CLDN18.2 cells, 0.313 µg/ml. For orientation: A flow cytometer gives signals particle by particle.
Procedure: (§1) The initial concentration of the antibody was 20 μg/ml, it was diluted at 1:4, and incubated at 4° C. for 60 min.

Experiment [2] deals with T1, Claudin 18.2 (CLDN18.2), expressed on …. As to the kind of experiment: FACS, CHOS-CLDN18.2 cells, 0.020 µg/ml.
Procedure: as §1
Experiment [3] shares this target. As to the kind of experiment: FACS, CHOS-CLDN18.2 cells, 0.020 µg/ml. This is another data set of the same source.
Procedure: as §1
Experiment [4] shares this target. As to the kind of experiment: FACS, CHOS-CLDN18.2 cells, 0.313 µg/ml. The source holds these as a separate data set.
Procedure: as §1
Experiment [5] has the same target. As to the kind of experiment: FACS, CHOS-CLDN18.2 cells, 0 µg/ml (background).
Procedure: as §1
For experiment [6] the target is unchanged. As to the kind of experiment: FACS, CHOS-CLDN18.2 cells, 0.078 µg/ml.
Procedure: as §1
The target is the same in experiment [7]. As to the kind of experiment: FACS, CHOS-CLDN18.2 cells, 0.078 µg/ml. This is another data set of the same source.
Procedure: as §1
For experiment [8] the target is unchanged. In words: FACS, CHOS-CLDN18.2 cells, 0.313 µg/ml. This is another data set of the same source.
Procedure: as §1
Experiment [9] shares this target. In words: FACS, CHOS-CLDN18.2 cells, 0 µg/ml (background). The source holds these as a separate data set.
Procedure: as §1
Experiment [10] has the same target. In words: FACS, CHOS-CLDN18.2 cells, 20 µg/ml.
Procedure: as §1
Experiment [11] has the same target. As to the kind of experiment: FACS, CHOS-CLDN18.2 cells, 0.020 µg/ml. The source holds these as a separate data set.
Procedure: as §1
Experiment [12] has the same target. In words: FACS, CHOS-CLDN18.2 cells, 1.250 µg/ml.
Procedure: as §1
Experiment [13] has the same target. As to the kind of experiment: FACS, CHOS-CLDN18.2 cells, 20 µg/ml. The source holds these as a separate data set.
Procedure: as §1
For experiment [14] the target is unchanged. As to the kind of experiment: FACS, CHOS-CLDN18.2 cells, 0.313 µg/ml. This is another data set of the same source.
Procedure: as §1
For experiment [15] the target is unchanged. In words: FACS, CHOS-CLDN18.2 cells, 0 µg/ml (background). This is another data set of the same source.
Procedure: as §1
Experiment [16] shares this target. In words: FACS, CHOS-CLDN18.2 cells, 0.020 µg/ml. This is another data set of the same source.
Procedure: as §1
Experiment [17] shares this target. As to the kind of experiment: FACS, CHOS-CLDN18.2 cells, 0 µg/ml (background). The source holds these as a separate data set.
Procedure: as §1
For experiment [18] the target is unchanged. In words: FACS, CHOS-CLDN18.2 cells, 0.005 µg/ml.
Procedure: as §1

B1: QP024025 (antibody, human IgG1, V domains shown)
VH: QVQLQQPGAELVRPGASVKLSCKASGYTFTSYWINWVKQRPGQGLEWIGNIYPSDSYTNYNQKFKDKATLTVDKSSSTAYMQLSSPTSEDSAVYYCTRSWRGNSFDYWGQGTTLTVSS
VL: DIVMTQSPSSLTVTAGEKVTMSCKSSQSLLNSGNQKNYLTWYQQKPGQPPKLLIYWASTRESGVPDRFTGSGSGTDFTLTISSVQAEDLAVYYCQNDYSYPFTFGSGTKLEIK
notes: also called IMAB362; 175D10(IMAB362)
For the molecule B1, the FACS reading worked out at 51000 in experiment [1]; 6950 in experiment [2]; 6950 in experiment [3]; 51000 in experiment [4]; 732 in [5]; 18200 in [6]. Moreover, the FACS reading in experiment [7] came out at 18200; in experiment [8], 51000; in experiment [9], 732; in experiment [10], 72300; in experiment [11], 6950; in experiment [12], 63700. In addition, the FACS reading in experiment [13] is 72300; in experiment [14] it was 51000; in [15], 732; in [16], 6950; in [17] it was 732; in [18] it was 2830.
